Assay results published in patent publication US20190248902A1 (published 2019).
Changes are numbered by the printed parent chain.

T1: recombinant, soluble human ASGR-1 (human, UniProt P07306 62-291)
T1 construct: biotinylated in the binning assay; also called soluble huASGR-1; Soluble ASGR-1 (Amgen)
T1 sequence: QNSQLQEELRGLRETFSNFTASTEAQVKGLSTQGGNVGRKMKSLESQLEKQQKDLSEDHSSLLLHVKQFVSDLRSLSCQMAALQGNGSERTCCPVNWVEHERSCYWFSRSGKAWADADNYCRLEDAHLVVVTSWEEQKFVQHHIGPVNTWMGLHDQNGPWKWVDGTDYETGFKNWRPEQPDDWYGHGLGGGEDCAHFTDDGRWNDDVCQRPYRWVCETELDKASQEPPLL

B1: 51E3 (antibody, V domains shown)
VH: QVQLVQSGAEVKKPGASVKVSCKASGYTFNSYGISWVRLAPGQGLEWMGWISAYNGNTKNAQRFQGRVTMTTDTSTSTAYMELRSLRSDDTAVYYCARHDFWSGYYKGMDVWGQGTTVTVSS
VL: not shown
notes: hybridoma mAb
B2: 53E8 (antibody, V domains shown)
VH: B1 VH with L39Q, N60F, R63K, F64L
VL: not shown
notes: hybridoma mAb
B3: 54E9 (antibody, V domains shown)
VH: B1 VH with R63K, F64L
VL: not shown
notes: hybridoma mAb
B4: 56E3 (antibody, V domains shown)
VH: B1 VH with I34F, L39Q, N60E, R63K, S88A
VL: not shown
notes: hybridoma mAb
B5: 65D5 (antibody, V domains shown)
VH: QVQLVQSGAEVKKPGASVKVSCKASGYTFPSYGISWVRQAPGQGLEWMGWISAYSGNTNYAQKLQGRVTMTTDTSTSTAYMELRSLRSDDTAVYFCARGEAVAVFDPWGQGTLVTVSS
VL: DIQMTQSPSSLSASVGDRVTITCRASQDINNYLAWFQQKPGKAPRSLIYAASSLHSGVPSQFSASGSGSDFTLTISSLQPEDFATYYCPLYKSYPLTFGPGTKVDIK
notes: hybridoma mAb
B6: 66H11 (antibody, V domains shown)
VH: B5 VH with P30A, S31T, S55N, F95Y
VL: DIQMTQFPSSLFAFVGDRVTITCPASQGISNYLAWFQQKPGKAPKSLIYGAFNLHSGVPSKFSGSGFGTDFTLTINSLQPEDFANYYCQQYSCYPFTFGHGTKVDIK
notes: hybridoma mAb
B7: 190E6 (antibody, V domains shown)
VH: QVQLVESGGGVVQPGRSLRLSCAASGFTFSSYGMHWVRQAPGKGLEWVAVIWYDGSNKNYADSVKGRFTISRDNSKNTLYLQMNSLRAEDTAVYYCARDQGVGYDGLDVWGQGTTVTVSS
VL: DIQMTQSPSSLSASVGDRVTITCRTSQGIGNYLAWFQQKPGKAPKSLLYKASSLQSGVPSKFSGSGSGTDFTLTISSLQPEDFATYYCQQYMTYPLTFGGGTKVEIK
notes: hybridoma mAb
B8: 193C7 (antibody, V domains shown)
VH: B7 VH with V93M, T115S
VL: B7 VL with T25A, N31K, L48I, K50A, M92S
notes: hybridoma mAb
B9: 191A10 (antibody, V domains shown)
VH: B7 VH with V93M, T115S
VL: B7 VL with T25A, N31K, L48I, K50A, S67Y, D82N, T85I, M92S
notes: hybridoma mAb
B10: 192G6 (antibody, V domains shown)
VH: B7 VH with I51L, S56T
VL: B7 VL with Q3K
notes: hybridoma mAb
B11: 190G11 (antibody, V domains shown)
VH: B7 VH with S31I
VL: B7 VL
notes: hybridoma mAb
B12: 192C8 (antibody, V domains shown)
VH: B7 VH with K58E, N59H, T69M, Q100R, D105Y, L107M
VL: B7 VL with T25A, G30S, L48I, K50A, Q90H, M92L
notes: hybridoma mAb
B13: 190C11 (antibody, V domains shown)
VH: B7 VH
VL: B7 VL with A51T
notes: hybridoma mAb
B14: 191E10 (antibody, V domains shown)
VH: B7 VH with V93M, T115S
VL: B7 VL with T25A, N31K, L48I, K50A, D82N, M92S
notes: hybridoma mAb
B15: 194C1 (antibody, V domains shown)
VH: B7 VH with K58E, N59H, D99N, Q100R, D105Y
VL: B7 VL with T25A, G30S, L48I, K50A, Q89L, Q90H, M92L
notes: hybridoma mAb
B16: 190F8 (antibody, V domains shown)
VH: B7 VH with S31T
VL: B7 VL
notes: hybridoma mAb
B17: 191G1 (antibody, V domains shown)
VH: B7 VH with K58E, N59H, Q100R, D105Y
VL: B7 VL with T25A, G30S, L48I, K50A, Q90H, M92L
notes: hybridoma mAb
B18: 191G12 (antibody, V domains shown)
VH: B7 VH
VL: B7 VL with M92I, T102S
notes: hybridoma mAb
B19: 192H10 (antibody, V domains shown)
VH: B7 VH with V93M, T115S
VL: B7 VL with T25A, N31K, L48I, K50A, S67Y, D82N, M92S
notes: hybridoma mAb
B20: 192G8 (antibody, V domains shown)
VH: B7 VH
VL: B7 VL with M92I
notes: hybridoma mAb
B21: 191G10 (antibody, V domains shown)
VH: B7 VH
VL: B7 VL with N31K, A51V
notes: hybridoma mAb
B22: 73G1 (antibody, V domains shown)
VH: QVQLVESGGGVVQPGRSLRLSCAGTGFTFSYYGMHWVRQAPGKGLEWVAVTTYDGSNKYYADSVKGRFTSSRDNSKNTLYLQMNSLRAEDTAVYHCARETGTWAFDIWGQGTMVTVSL
VL: QTVVTQEPSFSVSPGGTVTLTCGLSSGSVSTSYYPSWYQQTPGQAPRTLIYNTNTRSSGVPDRFSGSILGNKAALTITGAQADDESDYYCVLYMGSAIWVFGGGTKLTVL
notes: hybridoma mAb

biological target: T1, recombinant, soluble human ASGR-1; experiment: Octet BLI dissociation, pH 5.6 plus calcium
In short: (§1)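 Antibodies were captured on anti-human Fc biosensors, and soluble ASGR-1 (6 ug/ml) was associated for 2 min in Tris buffer containing 1 mM CaCl2 at pH 7.4, followed by 10 min dissociation under each test condition. The signal at the end of association was set as 100%. Percent ASGR-1 still bound after 1 min of dissociation was compared with the pH 7.4 plus calcium control, and >10% extra dissociation was scored as sensitive.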

% Change Compared to pH 7.4 + Calcium [%]	Binder
16	B1
20	B2
24	B3
21	B4
7	B5
36	B6
-12	B7
-8	B8
-5	B9
-6	B10
-8	B11
-14	B12
-6	B13
-9	B14
-12	B15
-5	B16
-15	B17
-5	B18
-5	B19
-5	B20
-5	B21
33	B22

biological target: T1, recombinant, soluble human ASGR-1; experiment: Octet BLI dissociation, pH 5.6 minus calcium
In short: as §1

% Change Compared to pH 7.4 + Calcium [%]	Binder
42	B1
64	B2
75	B3
16	B4
61	B5
52	B6
-6	B7
-8	B8
-5	B9
-6	B10
-5	B11
-14	B12
-6	B13
-9	B14
-8	B15
-5	B16
-11	B17
-6	B18
-4	B19
-6	B20
-5	B21
62	B22

biological target: T1, recombinant, soluble human ASGR-1; experiment: Octet BLI dissociation, pH 7.4 minus calcium
In short: as §1

% Change Compared to pH 7.4 + Calcium [%]	Binder
65	B1
68	B2
79	B3
75	B4
34	B5
81	B6
-1	B7
-1	B8
0	B9
-1	B10
-2	B11
-9	B12
-1	B13
-1	B14
-7	B15
-1	B16
-10	B17
-2	B18
0	B19
-1	B20
0	B21
100	B22
